Laboratory results published in patent US20050282743A1, “Molecular interactions in cells” (Arbor Vita Corporation, priority 2001, published 2005).

Experiments:
[1] = target: T1, GST-Atrophin-1 Interacting Protein PDZ domain 1 (Rattus norvegicus (Rat)), O88382; assay: G' assay; also: key of the grades not given here
[2] = target: GST-DLG1 PDZ domains 1, 2 (Homo sapiens), Q12959; assay: G' assay; also: key of the grades not given here
[3] = target: T2, GST-EZRIN Binding Protein 50 PDZ domain 1 (Homo sapiens (Human)), O14745; assay: G' assay; also: key of the grades not given here
T2 chain: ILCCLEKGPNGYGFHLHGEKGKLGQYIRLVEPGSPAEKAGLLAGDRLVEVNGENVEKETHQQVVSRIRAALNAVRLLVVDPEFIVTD

[4] = target: T3, GST-EZRIN Binding Protein 50 PDZ domain 2 (Homo sapiens (Human)), O14745; assay: G' assay; also: key of the grades not given here
T3 chain: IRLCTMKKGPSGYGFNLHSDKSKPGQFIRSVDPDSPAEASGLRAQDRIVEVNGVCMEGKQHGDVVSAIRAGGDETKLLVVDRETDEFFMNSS

[5] = target: T4, GST-FLJ 10324 PDZ domain 1 [GST: P08515]; assay: G' assay; also: key of the grades not given here
T4 chain: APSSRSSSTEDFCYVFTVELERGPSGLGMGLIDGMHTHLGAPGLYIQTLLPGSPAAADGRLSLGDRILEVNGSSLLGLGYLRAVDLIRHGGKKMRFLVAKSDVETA

[6] = target: T5, GST-INADL PDZ domain 8 (Homo sapiens (Human)), Q8NI35; assay: G' assay; also: key of the grades not given here
T5 chain: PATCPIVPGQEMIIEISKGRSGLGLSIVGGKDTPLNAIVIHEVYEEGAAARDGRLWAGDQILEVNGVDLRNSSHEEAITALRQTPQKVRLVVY

[7] = target: T6, GST-KIAA0807(S) PDZ domain 1 (Homo sapiens (Human)), Q6P0Q8; assay: G' assay; also: key of the grades not given here
T6 chain: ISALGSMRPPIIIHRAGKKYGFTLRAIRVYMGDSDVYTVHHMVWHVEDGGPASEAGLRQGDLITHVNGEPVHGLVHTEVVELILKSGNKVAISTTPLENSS

[8] = target: GST-KIAA1634 PDZ domain 1 (Homo sapiens (Human)), Q5TCQ9; assay: G' assay; also: key of the grades not given here
[9] = target: T7, GST-KIAA1634 PDZ domain 2 (Homo sapiens (Human)), Q5TCQ9; assay: G' assay; also: key of the grades not given here
T7 chain: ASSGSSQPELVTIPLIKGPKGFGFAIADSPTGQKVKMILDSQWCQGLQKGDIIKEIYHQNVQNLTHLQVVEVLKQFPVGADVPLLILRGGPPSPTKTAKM

[10] = target: GST-KIAA807 [GST: P08515]; assay: G' assay; also: key of the grades not given here
[11] = target: T8, GST-MINT1 PDZ domains 1, 2, Q02410; assay: G' assay; also: key of the grades not given here
T8 chain: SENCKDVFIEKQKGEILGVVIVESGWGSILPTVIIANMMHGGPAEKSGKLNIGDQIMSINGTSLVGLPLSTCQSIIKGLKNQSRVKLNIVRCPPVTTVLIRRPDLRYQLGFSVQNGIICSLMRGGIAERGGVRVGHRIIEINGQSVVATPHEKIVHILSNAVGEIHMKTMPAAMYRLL

[12] = target: T9, GST-NOS1 PDZ domain 1 (Homo sapiens (Human)), P29475; assay: G' assay; settings: remark: other sources report otherwise; also: key of the grades not given here
T9 chain: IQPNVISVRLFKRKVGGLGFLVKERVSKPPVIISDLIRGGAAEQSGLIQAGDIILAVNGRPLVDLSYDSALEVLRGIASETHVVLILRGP

[13] = target: T10, GST-NeDLG PDZ domain 3 (Mus musculus (Mouse)), P70175; assay: G' assay; also: key of the grades not given here
T10 chain: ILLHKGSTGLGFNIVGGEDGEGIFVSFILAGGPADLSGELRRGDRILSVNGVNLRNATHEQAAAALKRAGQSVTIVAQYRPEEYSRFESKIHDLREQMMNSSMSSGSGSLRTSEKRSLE

[14] = target: T11, GST-NeDLG PDZ domains 1, 2, Q92796; assay: G' assay; also: key of the grades not given here
T11 chain: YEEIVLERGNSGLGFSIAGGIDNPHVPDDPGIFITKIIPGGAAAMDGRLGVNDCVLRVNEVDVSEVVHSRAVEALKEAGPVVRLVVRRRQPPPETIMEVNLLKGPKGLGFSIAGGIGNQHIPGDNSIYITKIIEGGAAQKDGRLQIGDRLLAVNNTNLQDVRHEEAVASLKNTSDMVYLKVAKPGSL

[15] = target: GST-PSD95 PDZ domains 1, 2, 3 (Homo sapiens), P78352; assay: G' assay; also: key of the grades not given here
[16] = target: T12, GST-PTPL1 PDZ domain 2 (Homo sapiens (Human)), Q12923; assay: G' assay; also: key of the grades not given here
T12 chain: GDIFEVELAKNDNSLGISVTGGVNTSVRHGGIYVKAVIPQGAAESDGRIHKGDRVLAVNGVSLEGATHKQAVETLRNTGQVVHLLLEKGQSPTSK

[17] = target: T13, GST-PTPL1 PDZ domain 4 (Homo sapiens (Human)), Q12923; assay: G' assay; also: key of the grades not given here
T13 chain: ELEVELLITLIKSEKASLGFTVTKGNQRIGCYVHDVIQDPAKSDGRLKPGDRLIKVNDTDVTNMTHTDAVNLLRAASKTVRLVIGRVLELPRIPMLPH

[18] = target: T14, GST-Shank 1 PDZ domain 1 (Homo sapiens (Human)), Q9UPX8; assay: G' assay; also: key of the grades not given here
T14 chain: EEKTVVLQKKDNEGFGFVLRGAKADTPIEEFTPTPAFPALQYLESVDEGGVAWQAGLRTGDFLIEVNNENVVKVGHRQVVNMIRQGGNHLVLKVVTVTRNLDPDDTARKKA

[19] = target: T15, GST-Shank 3 PDZ domain 1 (human (hypothetical, computer cloned)), Q9BYB0; assay: G' assay; also: key of the grades not given here
T15 chain: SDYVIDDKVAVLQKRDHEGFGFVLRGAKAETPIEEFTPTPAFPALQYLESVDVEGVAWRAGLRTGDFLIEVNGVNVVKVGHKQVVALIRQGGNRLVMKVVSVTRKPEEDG

[20] = target: T16, GST-TIP1 PDZ domain 1 (Table 9 insert) (Homo sapiens (Human)), O14907; assay: G' assay; also: key of the grades not given here
T16 chain: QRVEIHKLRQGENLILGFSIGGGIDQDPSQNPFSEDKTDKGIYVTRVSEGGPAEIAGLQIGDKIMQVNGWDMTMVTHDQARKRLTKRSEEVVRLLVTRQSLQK

[21] = target: T17, GST-ZO-1 PDZ domain 1 (Rattus norvegicus (Rat)), A0A0G2; assay: G' assay; also: key of the grades not given here
T17 chain: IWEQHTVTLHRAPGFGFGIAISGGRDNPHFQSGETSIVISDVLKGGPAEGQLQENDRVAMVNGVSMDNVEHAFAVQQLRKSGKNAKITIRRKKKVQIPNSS

[22] = target: GST-KIAA1634 PDZ domain 1 (Homo sapiens (Human)), Q5TCQ9; assay: G assay titration, PDZ 1 ug/ml
[23] = target: T1, GST-Atrophin-1 Interacting Protein PDZ …; assay: G assay titration, PDZ 5 ug/ml
[24] = target: T14, GST-Shank 1 PDZ domain 1 (Homo sapiens …); assay: G assay titration, PDZ 5 ug/ml
[25] = target: GST-TAX IP2 PDZ domain 1 [GST: P08515]; assay: G' assay; also: key of the grades not given here
[26] = target: GST-TAX IP2 PDZ domain 1 [GST: P08515]; assay: G assay titration, PDZ 1 ug/ml
[27] = target: T18, GST-AIPC PDZ domain 1 (Homo sapiens (Human)), O15018; assay: G' assay; also: key of the grades not given here
T18 chain: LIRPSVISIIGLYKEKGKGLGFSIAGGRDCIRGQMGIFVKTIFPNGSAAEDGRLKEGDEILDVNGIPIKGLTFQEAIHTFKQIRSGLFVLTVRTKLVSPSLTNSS

[28] = target: GST-Atrophin-1 Interacting Protein PDZ domain 5 (Rattus norvegicus (Rat)), O88382; assay: G' assay; also: key of the grades not given here
[29] = target: GST-BAI-1 Associated Protein PDZ domain 3 (Homo sapiens (Human)), Q96QZ7; assay: G' assay; also: key of the grades not given here
[30] = target: T19, GST-FLJ00011 PDZ domain 1 (Homo sapiens (Human)), Q9H5P4; assay: G' assay; also: key of the grades not given here
T19 chain: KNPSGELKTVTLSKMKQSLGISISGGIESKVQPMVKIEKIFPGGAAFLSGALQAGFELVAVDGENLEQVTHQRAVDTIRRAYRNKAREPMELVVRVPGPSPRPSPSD

[31] = target: T20, GST-GRIP 1 PDZ domain 3 (Homo sapiens (Human)), Q9Y3R0; assay: G' assay; also: key of the grades not given here
T20 chain: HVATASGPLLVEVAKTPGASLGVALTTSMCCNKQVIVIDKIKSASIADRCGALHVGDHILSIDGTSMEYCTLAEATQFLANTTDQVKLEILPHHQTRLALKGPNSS

[32] = target: T21, GST-HEMBA 1003117 PDZ domain 1 (Homo sapiens (Human)), Q96JH8; assay: G' assay; also: key of the grades not given here
T21 chain: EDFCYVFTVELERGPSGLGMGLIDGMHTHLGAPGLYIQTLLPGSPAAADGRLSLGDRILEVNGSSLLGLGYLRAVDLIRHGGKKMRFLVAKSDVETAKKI

[33] = target: T22, GST-MINT1 PDZ domain 2 (Mus musculus (Mouse)), B2RUJ5; assay: G' assay; also: key of the grades not given here
T22 chain: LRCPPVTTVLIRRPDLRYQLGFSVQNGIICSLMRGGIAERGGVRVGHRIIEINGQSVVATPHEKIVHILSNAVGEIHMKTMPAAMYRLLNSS

[34] = target: T23, GST-MUPP1 PDZ domain 13 (Homo sapiens (Human)), O75970; assay: G' assay; also: key of the grades not given here
T23 chain: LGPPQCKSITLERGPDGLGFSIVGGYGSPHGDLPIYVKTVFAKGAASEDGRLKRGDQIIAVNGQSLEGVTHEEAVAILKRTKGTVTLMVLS

[35] = target: GST-PIST PDZ domain 1 (Mus musculus (Mouse)), Q8BH60; assay: G' assay; also: key of the grades not given here
[36] = target: T24, GST-Syntrophin gamma 1 PDZ domain 1 (Homo sapiens (Human)), Q9NSN8; assay: G' assay; also: key of the grades not given here
T24 chain: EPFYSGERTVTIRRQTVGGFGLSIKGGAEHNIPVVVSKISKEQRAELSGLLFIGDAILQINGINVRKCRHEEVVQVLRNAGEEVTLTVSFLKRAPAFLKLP

[37] = target: T12, GST-PTPL1 PDZ domain 2 (Homo sapiens …); assay: G assay titration, PDZ 1 ug/ml
[38] = target: T6, GST-KIAA0807(S) PDZ domain 1 (Homo …); assay: G assay titration, PDZ 0.5 ug/ml

GST-KIAA807 [GST: P08515], sequence (P08515 whole entry, the tested form may be a part): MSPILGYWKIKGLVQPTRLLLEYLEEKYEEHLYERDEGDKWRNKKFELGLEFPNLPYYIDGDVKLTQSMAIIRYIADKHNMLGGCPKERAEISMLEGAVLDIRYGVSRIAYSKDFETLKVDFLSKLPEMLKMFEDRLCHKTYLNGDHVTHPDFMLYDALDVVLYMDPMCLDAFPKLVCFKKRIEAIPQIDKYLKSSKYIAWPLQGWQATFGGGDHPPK
T1 sequence (O88382 408-511): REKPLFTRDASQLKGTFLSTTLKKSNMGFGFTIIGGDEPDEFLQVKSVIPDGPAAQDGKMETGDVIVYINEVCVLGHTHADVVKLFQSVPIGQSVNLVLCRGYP
GST-TAX IP2 PDZ domain 1 [GST: P08515], sequence (P08515 whole entry, the tested form may be a part): as the sequence (P08515 whole entry, the tested form may be a part) above
GST-KIAA1634 PDZ domain 1 (Homo sapiens (Human)), Q5TCQ9, sequence (Q5TCQ9 401-502): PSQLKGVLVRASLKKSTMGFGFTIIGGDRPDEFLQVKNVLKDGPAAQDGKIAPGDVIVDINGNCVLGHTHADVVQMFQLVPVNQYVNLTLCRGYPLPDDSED
GST-BAI-1 Associated Protein PDZ domain 3 (Homo sapiens (Human)), Q96QZ7, sequence (Q96QZ7 other isoform, or with tags, fused parts or gaps): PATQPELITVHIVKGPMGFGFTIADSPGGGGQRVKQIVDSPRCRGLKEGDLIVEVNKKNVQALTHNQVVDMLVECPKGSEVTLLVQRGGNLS
GST-Atrophin-1 Interacting Protein PDZ domain 5 (Rattus norvegicus (Rat)), O88382, sequence (O88382 1128-1225): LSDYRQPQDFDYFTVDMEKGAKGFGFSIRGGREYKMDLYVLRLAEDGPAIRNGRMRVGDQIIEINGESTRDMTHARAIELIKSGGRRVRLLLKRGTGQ
GST-PSD95 PDZ domains 1, 2, 3 (Homo sapiens), P78352, sequence (P78352 62-395): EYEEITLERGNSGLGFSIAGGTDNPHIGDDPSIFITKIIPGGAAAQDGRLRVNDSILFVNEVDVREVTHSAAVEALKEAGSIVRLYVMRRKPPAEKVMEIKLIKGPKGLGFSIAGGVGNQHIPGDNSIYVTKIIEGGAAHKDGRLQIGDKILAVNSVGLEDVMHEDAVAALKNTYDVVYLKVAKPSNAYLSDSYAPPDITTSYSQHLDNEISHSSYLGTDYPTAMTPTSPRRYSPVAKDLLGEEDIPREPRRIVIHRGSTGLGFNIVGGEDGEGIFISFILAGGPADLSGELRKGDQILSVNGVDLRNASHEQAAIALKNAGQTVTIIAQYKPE

B1: Neuroligin (peptide)
peptide: TFAAGFNSTGLPHSTTRV
modifications: not checked
- Classification [1]: 2 A450 class
- Classification [2]: 2 A450 class
- Classification [3]: 2 A450 class
- Classification [4]: 1 A450 class
- Classification [5]: 1 A450 class
- Classification [6]: 1 A450 class
- Classification [7]: 3 A450 class
- Classification [8]: 4 A450 class
- Classification [9]: 2 A450 class
- Classification [10]: 3 A450 class
- Classification [11]: 1 A450 class
- Classification [12]: 1 A450 class
- Classification [13]: 1 A450 class
- Classification [14]: 1 A450 class
- Classification [15]: 2 A450 class
- Classification [16]: 1 A450 class
- Classification [17]: 1 A450 class
- Classification [18]: 2 A450 class
- Classification [19]: 3 A450 class
- Classification [20]: 1 A450 class
- Classification [21]: 1 A450 class
- Kd [22]: 100 nM
- Kd [23]: 250 nM
- Kd [24]: 300 nM

B2: AKT1 (peptide)
peptide: VDSERRPHFPQFSYSASSTA
modifications: not checked
- Classification [7]: 1 A450 class
- Classification [10]: 1 A450 class
- Classification [25]: 4 A450 class
- Kd [26]: 2500 nM

B3: PTEN (peptide)
peptide: DSDPENEPFDEDQHTQITKV
modifications: not checked
- Classification [27]: 1 A450 class
- Classification [28]: 2 A450 class
- Classification [29]: 2 A450 class
- Classification [5]: 1 A450 class
- Classification [30]: 3 A450 class
- Classification [31]: 1 A450 class
- Classification [32]: 1 A450 class
- Classification [6]: 1 A450 class
- Classification [7]: 5 A450 class
- Classification [9]: 5 A450 class
- Classification [10]: 5 A450 class
- Classification [33]: 1 A450 class
- Classification [11]: 1 A450 class
- Classification [34]: 5 A450 class
- Classification [35]: 1 A450 class
- Classification [16]: 4 A450 class
- Classification [17]: 1 A450 class
- Classification [18]: 3 A450 class
- Classification [36]: 1 A450 class
- Classification [20]: 2 A450 class
- Kd [37]: 300 nM
- Kd [24]: 1500 nM
- Kd [38]: 300 nM
